From PMC6300308, “Linear Eyring Plots Conceal a Change in the Rate-Limiting Step in an Enzyme Reaction” (Biochemistry, 2018)
Where two headings read alike, the source gives them in different places.

B1: PaHBDH (Psychrobacter arcticus 273-4) (protein)
chain: MATQLQQDLTGKVALVTGAASGIGRDIAETYAKAGAAVGIADINLEAAQKTVDAIEAAGGRALAIAMDVTSEAAVNDGVQRLVDTFGGIDILVSNAGIQIIDPIHKMAFEDWKKMLAIHLDGAFLTTKAAIQHMYKDDKGGTVIYMGSVHSHEASLFKAPYVTAKHGLLGLCRVLAKEGAVHNVRSHVICPGFVKTPLVEKQIPQQAAEKGISEESVVNDIMLVNTVDKEFTTVDDIAQLALFLAAFPTNVFTGQSIVASHGWFMN
notes: recombinant purified enzyme; cloning details only in supplement

Key:
AbHBDH = target: T1, AbHBDH (Acinetobacter baumannii, UniProt A0A1E3M3N6); experiment: stopped-flow single-turnover kinetics, NADH limiting; assay type: biochemical; conditions: acetoacetate or 3-oxovalerate as co-substrate; 283 and 298 K
T1 construct: gene AUO97_16470; recombinant purified enzyme; cloning details only in supplement
T1 sequence (A0A1E3M3N6 1-261): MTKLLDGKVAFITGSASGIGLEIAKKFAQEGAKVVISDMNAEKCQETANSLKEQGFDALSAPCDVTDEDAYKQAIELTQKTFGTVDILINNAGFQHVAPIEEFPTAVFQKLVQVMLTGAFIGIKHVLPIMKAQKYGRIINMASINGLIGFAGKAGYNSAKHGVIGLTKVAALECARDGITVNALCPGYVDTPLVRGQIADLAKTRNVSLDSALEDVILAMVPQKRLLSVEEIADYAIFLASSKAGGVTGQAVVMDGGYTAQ

PaHBDH = target: T2, PaHBDH (Psychrobacter arcticus, UniProt Q4FRT2); experiment: as above; assay type: biochemical; conditions: acetoacetate or 3-oxovalerate as co-substrate; 283 and 298 K
T2 construct: gene Psyc_1428; recombinant purified enzyme; cloning details only in supplement
T2 sequence (Q4FRT2 1-266): B1 chain

[1] = substrate: NC(=O)C1=CN([C@@H]2O[C@H](COP(=O)(O)OP(=O)(O)OC[C@H]3O[C@@H](n4cnc5c(N)ncnc54)[C@H](O)[C@@H]3O)[C@@H](O)[C@H]2O)C=CC1; experiment: purified protein, by the assay type; parameters: steady-state saturation kinetics of NADH-dependent reduction by purified recombinant HBDH, 298 K
Excerpt: (§1) We measured saturation curves for AbHBDH and PaHBDH at various temperatures (283–330 K for AbHBDH and 283–318 K for PaHBDH) (Figure S2 and Tables S1–S4). […] Apparent steady-state catalytic constants (kcat) were used to construct Eyring plots for each enzyme (Figure 1). […] Accordingly, a significant negative ΔCp^⧧ is predicted for the psychrophilic enzyme but not for the mesophilic one (Table S6).

[2] = substrate: CC(=O)CC(=O)O; experiment: steady-state saturation curves; assay type: biochemical, Psychrobacter arcticus; conditions: co-substrate NADH; 283-318 K; 45.0 °C
Excerpt: (§2) steady-state saturation curves on PaHBDH | We measured saturation curves for AbHBDH and PaHBDH at various temperatures

[3] = substrate: CCC(=O)CC(=O)O; experiment: steady-state saturation curves; assay type: biochemical, Psychrobacter arcticus; conditions: co-substrate NADH; 283-318 K; 45.0 °C
Excerpt: as §2

[4] = substrate: NC(=O)C1=CN([C@@H]2O[C@H](COP(=O)(O)OP(=O)(O)OC[C@H]3O[C@@H](n4cnc5c(N)ncnc54)[C@H](O)[C@@H]3O)[C@@H](O)[C@H]2O)C=CC1; experiment: purified protein, by the assay type; parameters: steady-state saturation kinetics of NADH-dependent reduction by purified recombinant HBDH, 298 K; remark: listed apart in the source
Excerpt: as §1

| Molecule | stopped-flow single-turnover kinetics, NADH limiting (AbHBDH) | stopped-flow single-turnover kinetics, NADH limiting (PaHBDH) | Km [1] | kcat [1] | kcat/Km [1] | Km [2] | kcat [2] | Km [3] | kcat [3] | Km [4] | kcat [4] | kcat/Km [4] |
| --- | --- | --- | --- | --- | --- | --- | --- | --- | --- | --- | --- | --- |
| NC(=O)C1=CN([C@@H]2O[C@H](COP(=O)(O)OP(=O)(O)OC[C@H]3O[C@@H](n4cnc5c(N)ncnc54)[C@H](O)[C@@H]3O)[C@@H](O)[C@H]2O)C=CC1 [NADH] | demonstrating NADH is saturated with AbHBDH and kSTO is unimolecular | demonstrating NADH is saturated with PaHBDH and kSTO is unimolecular |  |  |  |  |  |  |  |  |  |  |
| B1 |  |  | 30 ± 10 µM | 86 ± 4 s⁻¹ | 2.7e+06 ± 700000 M⁻¹ s⁻¹ | 110 ± 10 µM | 86 ± 4 s⁻¹ | 36 ± 2 µM | 5.9 ± 0.1 s⁻¹ | 3.4 ± 0.4 µM | 5.9 ± 0.1 s⁻¹ | 1.7e+06 ± 800000 M⁻¹ s⁻¹ |
